Source: article PMC6443348, “Protein denaturation at the air-water interface and how to prevent it” (eLife, 2019)

Biological target: T1, fatty acid synthase (FAS) from Saccharomyces cerevisiae, beta subunit (forms the beta-domes) (Saccharomyces cerevisiae, UniProt P07149 1-2051)
T1 construct: Fatty acid synthase subunit beta, Saccharomyces cerevisiae; also called yeast FAS
Assay: cryo-EM structure; single-particle cryo-EM of purified FAS complex (0.2 mg/ml) on hydrophilized graphene grids; maps at 4.8 Å (C1) and 4.0 Å (D3 symmetry)
Settings: both partners purified

T1 sequence (P07149 whole entry): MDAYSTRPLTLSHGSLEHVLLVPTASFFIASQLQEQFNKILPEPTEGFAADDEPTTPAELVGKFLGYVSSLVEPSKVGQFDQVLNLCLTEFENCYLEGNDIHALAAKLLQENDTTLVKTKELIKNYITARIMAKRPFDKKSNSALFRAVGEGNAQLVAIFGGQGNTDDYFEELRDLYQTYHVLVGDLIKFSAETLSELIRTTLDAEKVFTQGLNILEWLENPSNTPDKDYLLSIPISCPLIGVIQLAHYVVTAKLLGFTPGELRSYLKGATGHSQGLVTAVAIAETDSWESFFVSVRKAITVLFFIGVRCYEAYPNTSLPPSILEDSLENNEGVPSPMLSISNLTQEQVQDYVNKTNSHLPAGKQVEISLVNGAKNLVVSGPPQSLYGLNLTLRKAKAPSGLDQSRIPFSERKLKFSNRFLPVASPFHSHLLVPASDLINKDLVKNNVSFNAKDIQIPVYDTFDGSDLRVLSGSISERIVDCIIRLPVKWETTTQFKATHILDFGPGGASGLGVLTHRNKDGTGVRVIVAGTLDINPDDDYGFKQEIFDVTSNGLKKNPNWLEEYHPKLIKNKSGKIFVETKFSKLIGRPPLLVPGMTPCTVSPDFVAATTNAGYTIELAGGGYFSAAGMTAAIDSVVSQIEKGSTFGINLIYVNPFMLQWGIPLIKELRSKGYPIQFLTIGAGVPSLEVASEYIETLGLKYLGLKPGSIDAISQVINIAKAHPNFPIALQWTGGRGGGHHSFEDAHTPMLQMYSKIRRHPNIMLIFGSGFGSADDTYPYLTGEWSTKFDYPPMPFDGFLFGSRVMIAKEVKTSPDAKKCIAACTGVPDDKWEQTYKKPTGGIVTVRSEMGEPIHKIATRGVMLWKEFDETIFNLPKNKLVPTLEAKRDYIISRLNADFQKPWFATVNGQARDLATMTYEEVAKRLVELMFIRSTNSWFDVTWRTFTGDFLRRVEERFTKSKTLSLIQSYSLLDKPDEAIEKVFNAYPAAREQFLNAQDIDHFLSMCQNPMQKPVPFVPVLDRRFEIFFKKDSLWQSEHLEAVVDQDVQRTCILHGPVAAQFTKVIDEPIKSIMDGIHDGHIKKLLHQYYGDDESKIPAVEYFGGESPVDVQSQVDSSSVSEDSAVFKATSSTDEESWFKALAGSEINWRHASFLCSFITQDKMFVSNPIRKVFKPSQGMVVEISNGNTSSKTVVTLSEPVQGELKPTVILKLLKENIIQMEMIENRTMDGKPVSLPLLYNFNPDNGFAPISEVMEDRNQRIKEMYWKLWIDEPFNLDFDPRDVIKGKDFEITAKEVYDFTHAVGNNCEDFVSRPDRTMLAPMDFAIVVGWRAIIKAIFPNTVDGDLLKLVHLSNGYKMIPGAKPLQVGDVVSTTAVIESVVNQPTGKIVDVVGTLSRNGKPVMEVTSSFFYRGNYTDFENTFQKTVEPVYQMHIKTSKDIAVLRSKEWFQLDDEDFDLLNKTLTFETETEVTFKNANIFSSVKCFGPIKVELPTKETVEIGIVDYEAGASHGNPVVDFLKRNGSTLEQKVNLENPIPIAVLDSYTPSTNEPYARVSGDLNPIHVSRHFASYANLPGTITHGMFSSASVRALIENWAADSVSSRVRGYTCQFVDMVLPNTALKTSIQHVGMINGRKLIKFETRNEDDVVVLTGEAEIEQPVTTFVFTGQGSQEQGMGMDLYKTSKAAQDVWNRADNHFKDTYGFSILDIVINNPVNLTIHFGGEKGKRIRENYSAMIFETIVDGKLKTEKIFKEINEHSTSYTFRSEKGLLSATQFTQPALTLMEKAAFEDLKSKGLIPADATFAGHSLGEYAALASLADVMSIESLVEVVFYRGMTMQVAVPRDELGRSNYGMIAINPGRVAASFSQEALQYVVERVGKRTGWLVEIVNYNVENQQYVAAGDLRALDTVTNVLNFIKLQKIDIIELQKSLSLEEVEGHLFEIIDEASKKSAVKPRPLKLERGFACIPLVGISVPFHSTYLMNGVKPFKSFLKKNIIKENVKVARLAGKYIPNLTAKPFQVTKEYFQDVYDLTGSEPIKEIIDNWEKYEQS

B1: fatty acid synthase (FAS) from Saccharomyces cerevisiae, alpha subunit (forms the alpha wheel) (natural protein, UniProt P19097 1-1887, looked up)
chain: MKPEVEQELAHILLTELLAYQFASPVRWIETQDVFLKDFNTERVVEIGPSPTLAGMAQRTLKNKYESYDAALSLHREILCYSKDAKEIYYTPDPSELAAKEEPAKEEAPAPTPAASAPAPAAAAPAPVAAAAPAAAAAEIADEPVKASLLLHVLVAHKLKKSLDSIPMSKTIKDLVGGKSTVQNEILGDLGKEFGTTPEKPEETPLEELAETFQDTFSGALGKQSSSLLSRLISSKMPGGFTITVARKYLQTRWGLPSGRQDGVLLVALSNEPAARLGSEADAKAFLDSMAQKYASIVGVDLSSAASASGAAGAGAAAGAAMIDAGALEEITKDHKVLARQQLQVLARYLKMDLDNGERKFLKEKDTVAELQAQLDYLNAELGEFFVNGVATSFSRKKARTFDSSWNWAKQSLLSLYFEIIHGVLKNVDREVVSEAINIMNRSNDALIKFMEYHISNTDETKGENYQLVKTLGEQLIENCKQVLDVDPVYKDVAKPTGPKTAIDKNGNITYSEEPREKVRKLSQYVQEMALGGPITKESQPTIEEDLTRVYKAISAQADKQDISSSTRVEFEKLYSDLMKFLESSKEIDPSQTTQLAGMDVEDALDKDSTKEVASLPNKSTISKTVSSTIPRETIPFLHLRKKTPAGDWKYDRQLSSLFLDGLEKAAFNGVTFKDKYVLITGAGKGSIGAEVLQGLLQGGAKVVVTTSRFSKQVTDYYQSIYAKYGAKGSTLIVVPFNQGSKQDVEALIEFIYDTEKNGGLGWDLDAIIPFAAIPEQGIELEHIDSKSEFAHRIMLTNILRMMGCVKKQKSARGIETRPAQVILPMSPNHGTFGGDGMYSESKLSLETLFNRWHSESWANQLTVCGAIIGWTRGTGLMSANNIIAEGIEKMGVRTFSQKEMAFNLLGLLTPEVVELCQKSPVMADLNGGLQFVPELKEFTAKLRKELVETSEVRKAVSIETALEHKVVNGNSADAAYAQVEIQPRANIQLDFPELKPYKQVKQIAPAELEGLLDLERVIVVTGFAEVGPWGSARTRWEMEAFGEFSLEGCVEMAWIMGFISYHNGNLKGRPYTGWVDSKTKEPVDDKDVKAKYETSILEHSGIRLIEPELFNGYNPEKKEMIQEVIVEEDLEPFEASKETAEQFKHQHGDKVDIFEIPETGEYSVKLLKGATLYIPKALRFDRLVAGQIPTGWNAKTYGISDDIISQVDPITLFVLVSVVEAFIASGITDPYEMYKYVHVSEVGNCSGSGMGGVSALRGMFKDRFKDEPVQNDILQESFINTMSAWVNMLLISSSGPIKTPVGACATSVESVDIGVETILSGKARICIVGGYDDFQEEGSFEFGNMKATSNTLEEFEHGRTPAEMSRPATTTRNGFMEAQGAGIQIIMQADLALKMGVPIYGIVAMAATATDKIGRSVPAPGKGILTTAREHHSSVKYASPNLNMKYRKRQLVTREAQIKDWVENELEALKLEAEEIPSEDQNEFLLERTREIHNEAESQLRAAQQQWGNDFYKRDPRIAPLRGALATYGLTIDDLGVASFHGTSTKANDKNESATINEMMKHLGRSEGNPVIGVFQKFLTGHPKGAAGAWMMNGALQILNSGIIPGNRNADNVDKILEQFEYVLYPSKTLKTDGVRAVSITSFGFGQKGGQAIVVHPDYLYGAITEDRYNEYVAKVSAREKSAYKFFHNGMIYNKLFVSKEHAPYTDELEEDVYLDPLARVSKDKKSGSLTFNSKNIQSKDSYINANTIETAKMIENMTKEKVSNGGVGVDVELITSINVENDTFIERNFTPQEIEYCSAQPSVQSSFAGTWSAKEAVFKSLGVKSLGGGAALKDIEIVRVNKNAPAVELHGNAKKAAEEAGVTDVKVSISHDDLQAVAVAVSTKK
notes: Fatty acid synthase subunit alpha, Saccharomyces cerevisiae; also called yeast FAS
Does B1 bind?
Result: binds
